Test: label from the status in PepcDB records

Sequence	protein production
MKIVGIYLAAGKSRRTGPGLHKLYLPTGNTLLGNKALHTSLSSNLSDVIVVSNQPSWLLHYTQVERVHILSCEKSCLGQSYSLHCGLEKAESMNADGVVVMLADQPFITVKLLNSLIDSYEHLPQLDYVAASFQGIPQPPILFSKGIFPSLKKLKGDQGARSIFFDKSFQGKITVYSDAKLFYDVNTIEDYNVIKNSLLLEHHHHHH	failed
MKIVIAPDSYKESLSALEVATAIEQGFREIWPDADYLKLPLADGGEGTVEAMVEATAGRIVHVEVTGPLGHRVNAFYGLSGDARSAFIEMAAASGLEQVPPAQRDPLKTTSWGTGELIRHALDAGVEHIIIGIGGSATNDGGAGMVQALGARLRDAQGNDIAQGGIGLETLASIDISGLDKRLSACHIEVACDVTNPLTGKEGASAVFGPQKGATPEMIERLDTALTRYAHLIARDLHVDVLDLAGGGAAGGMGAALYAFCGAQLRRGIEIVTDALHLEACLADADLVITGEGRIDSQTIHGKVPIGVANIAKRYNKPVIGIAGSLTADVSVVHEHGLDAVFSVIYTICTLEDALKNASENVRMTARNVAATLKAGQQLR	not failed
MKIVIIGGFLGGGKTTVLNHLLAESLKESLKPAVIMNEFGKMSVDGALVSEDIPLSELTEGCICCAMKADVSEQLHQLYLKEQPDIVFIECSGIAEPVSVLDACLTPILAPFTTITHMIGVIDASMYKHIKSFPKDIQGLFYEQLAYCSVLFVNKIDSADVETTSKLLKDLEVINPEADIQVGMHGSVTLPISVRQMTATSDNKHESLHKTINHQFVQSPVTCTKAEFIKRLACLPSHIYRLKGFMTFEDTTHTYLIQFTQGQYELTPVAFSKKVPEYLVLIGKGISKEDYQCLEQLEHHHHHH	failed
MKKASEYYYYLGDICWRKEKTDSAKYYFMEGIKTDETYAMNYVGIGIITMKSNATEGQRSFDKALQMTSQKNSQVLNAIGEYYILEADKAELPKGIALLKKSTEIDAKNAMSWILLGDAYGKQAEGSKQAESYGKAANLFHSVPLLKMKYGKMYAAARNKDLSIKYYNEGLAADPTYGPIYRELGDLYNRFRQYDLAIQNYKKYLTYIDSNDDVEFRYADFLFKNNNYAEAIEVFNKLEAKKYNSPYIYNRRAVCYYELEHHHHHH	failed
MKKESLFRYAREHFNSEPEYLWSNLPDYAVLRHDHGDKWFGIVMSVRGSTLGLKTDDKVDILDVKVRPEYIGSLRQKEGVLPAYHMNKEHWISVILSGPLSTKEIHELLADSHELTSGLEHHHHHH	not failed
MKKFAIMGLGTFGVRMLDELIKIGAEVIIIEQNKDLIEMYKSKASSAIVLEEISELSVRKILPSKVDTVIVDFGRKVELSVISTTILKNLGIANIVVRAQSDEHGRLLKTVGATRIIYPDSEAAKRTTPILAADLLLKFMPISKNLALAEVGVEARYVGKSLAESNIRKDMGVNIIARRKKESEDFIFMDDPEYKFEEDDVLLVVASEEHIYNFSGGKISLKNNLKKDGEIKPSIFKNLFSSKKV	failed
MKKFGLGVYLLLLGILGGSLIILGAIVAPIVFKASSVLPELHLTPFESGKLMAQIFVRFNYVLGAIGFVVLLYEIISFIYYKRSLVYLILGVAIGALCLLFVFYYTPYILNAQKAGEAALQSAEFARSHAQSEWLFKELFVLVCALFFWRLLGKNVL	failed
MKKFIILLSLLILLPLTAASKPLIPIMKTLFTDVTGTVPDAEEIAHKAELFRQQTGIAPFIVVLPDINNEASLRQNGKAMLAHASSSLSDVKGSVLLLFTTREPRLIMITNGQVESGLDDKHLGLLIENHTLAYLNADLWYQGINNALAVLQAQILKQSTPPLTYYPHPGQQHENAPPGSTNTLGFIAWAATFILFSRIFYYTTRFIYALKFAVAMTIANMGYQALCLYIDNSFAITRISPLWAGLIGVCTFIAALLLTSKR	failed
MKKFLAIITLCLLFFSFTIGCERASLNRIGKDVYYMQIKGEGTIEKVDGRNLRNYTLPAYDEDGVKKQITFRSTKKENDHKLNKYAFLRLYVDQDDNSKNEISSIEVKSYEEIQKADLPEKVKDKFTIKLEHHHHHH	not failed
MKKFVTRRLGRKKRRDTEIVLPTKDDDCREEHGSEVSCMEDVEEMLQELSMKGEFVFGSFWRQGDSAANDFDFGNSQYEIANYKDHRSLSLLITQDVLLER	failed

From a protein production outcome set (Wang et al. 2014)
